Earlier results on one substance are cited in article PMC3273586 (International Journal of Pharmaceutics, 2011).

The conditions of this data set: solution stored for 20 h at room temperature; ref Dijkhuizen-Radersma et al., 2002.

With calcitonin, the “aggregation of solution on storage” value is reported as “early onset of aggregation”.
